By EC50 is commonly meant the concentration at which the effect is half-maximal. The term Kd denotes the free concentration of one partner at which half of the binding sites on the other are occupied at equilibrium, for simple one-to-one binding. The term koff denotes the first-order rate constant of dissociation. In general, kon refers to a measure of how fast the partners come together.

In experiment [1] the target is T1, recombinant human LAG-3-his (#16498-H08H, Sino Biological Inc.) (human, UniProt P18627 23-450).
T1 construct: Bought; also called LAG-3-His (WT); not shown: His tag at the carboxy terminal
T1 sequence (looked up): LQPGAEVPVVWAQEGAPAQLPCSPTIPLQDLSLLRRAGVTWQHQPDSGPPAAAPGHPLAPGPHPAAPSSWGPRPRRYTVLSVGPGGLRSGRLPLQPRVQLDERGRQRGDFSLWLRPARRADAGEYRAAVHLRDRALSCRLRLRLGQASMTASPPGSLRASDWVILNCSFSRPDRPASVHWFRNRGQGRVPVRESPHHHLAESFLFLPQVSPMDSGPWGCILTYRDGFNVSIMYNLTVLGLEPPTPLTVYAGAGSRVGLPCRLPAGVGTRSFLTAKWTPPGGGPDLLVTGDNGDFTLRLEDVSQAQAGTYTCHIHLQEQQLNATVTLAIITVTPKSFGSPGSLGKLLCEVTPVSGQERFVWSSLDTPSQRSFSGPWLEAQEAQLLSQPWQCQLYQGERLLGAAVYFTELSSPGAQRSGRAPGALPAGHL
As to the kind of experiment: scFv phage ELISA on coated antigen, A490.

The target in experiment [2] is T2, mouse LAG-3 overexpressed on HEK293E cells (mouse, UniProt Q61790 24-521).
T2 construct: whole, on cells; also called HEK293E-mLAG3; mLAG3 (Mouse)
T2 sequence (looked up): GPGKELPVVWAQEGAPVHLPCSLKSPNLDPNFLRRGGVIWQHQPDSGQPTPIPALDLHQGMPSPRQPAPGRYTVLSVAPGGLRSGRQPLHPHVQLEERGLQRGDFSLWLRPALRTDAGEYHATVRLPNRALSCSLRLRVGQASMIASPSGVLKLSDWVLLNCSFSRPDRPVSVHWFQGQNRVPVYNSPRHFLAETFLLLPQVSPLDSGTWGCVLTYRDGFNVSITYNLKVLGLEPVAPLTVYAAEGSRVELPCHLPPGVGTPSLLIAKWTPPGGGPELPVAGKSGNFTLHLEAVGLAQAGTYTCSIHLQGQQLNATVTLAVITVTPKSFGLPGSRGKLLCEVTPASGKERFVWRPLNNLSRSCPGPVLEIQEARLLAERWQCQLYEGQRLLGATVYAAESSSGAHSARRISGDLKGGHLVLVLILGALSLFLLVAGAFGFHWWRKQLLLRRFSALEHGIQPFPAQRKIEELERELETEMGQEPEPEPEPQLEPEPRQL
Nature of the experiment: flow cytometry, HEK293E cells overexpressing mouse LAG-3. As to the method:
(§1) After that, the cells were washed three times with PBS containing 2% FBS and then subjected to the reaction for 30 minutes at 4° C. with anti-human IgG antibody (#FI-3000, Vectorlabs) linked with FITC fluorescent. The cells were washed by the same washing process as above followed by suspension in 0.2 ml PBS containing 2% FBS. The cells were then analyzed by FACSCanto II flow cytometer.
A general note: In flow cytometry, cells or beads pass a laser one at a time.

Experiment [3] concerns the target T3, human LAG-3 overexpressed on cells (human, UniProt P18627 23-525).
T3 construct: whole, on cells; also called HEK293E-hLAG3; hLAG3 (Human)
T3 sequence (looked up): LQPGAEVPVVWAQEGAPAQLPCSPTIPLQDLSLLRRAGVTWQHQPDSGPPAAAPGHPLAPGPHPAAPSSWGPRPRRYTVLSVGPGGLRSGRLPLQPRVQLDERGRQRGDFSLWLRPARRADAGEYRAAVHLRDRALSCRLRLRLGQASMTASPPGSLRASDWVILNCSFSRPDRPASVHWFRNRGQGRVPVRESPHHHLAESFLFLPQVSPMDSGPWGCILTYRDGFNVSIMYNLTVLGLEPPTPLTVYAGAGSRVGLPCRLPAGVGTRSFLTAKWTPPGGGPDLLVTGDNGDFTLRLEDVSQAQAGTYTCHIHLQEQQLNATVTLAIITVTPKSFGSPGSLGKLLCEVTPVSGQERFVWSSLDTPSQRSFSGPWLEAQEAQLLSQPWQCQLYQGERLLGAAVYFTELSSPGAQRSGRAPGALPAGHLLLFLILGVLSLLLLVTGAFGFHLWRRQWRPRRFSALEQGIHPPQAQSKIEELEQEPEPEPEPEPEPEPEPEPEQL
As to the kind of experiment: flow cytometry, HEK293E cells overexpressing LAG-3, antibody 2 µg/ml. As to the method:
as §1

Experiment [4] addresses T3, human LAG-3 overexpressed on cells. As to the kind of experiment: cell-based or functional assay.
Experiment [5] has as its target T2, mouse LAG-3 overexpressed on HEK293E …. Nature of the experiment: flow cytometry on HEK293E-mLAG3 cells, MFI, fitted curve. As for the experimental part: as §1
Experiment [6] has as its target T3, human LAG-3 overexpressed on cells. As to the kind of experiment: flow cytometry on HEK293E-hLAG3 cells, MFI, fitted curve. As for the experimental part: as §1
Experiment [7] addresses T4, recombinant human LAG-3 extracellular domain fused with mouse Fc (hLAG-3-mFc) (human, UniProt P18627 29-450).
T4 construct: range 29-450; Made in HEK293F cells; also called human LAG-3 antigen; wild-type (WT) LAG-3; not shown: mouse Fc (mFc) at the carboxy terminal
T4 sequence (looked up): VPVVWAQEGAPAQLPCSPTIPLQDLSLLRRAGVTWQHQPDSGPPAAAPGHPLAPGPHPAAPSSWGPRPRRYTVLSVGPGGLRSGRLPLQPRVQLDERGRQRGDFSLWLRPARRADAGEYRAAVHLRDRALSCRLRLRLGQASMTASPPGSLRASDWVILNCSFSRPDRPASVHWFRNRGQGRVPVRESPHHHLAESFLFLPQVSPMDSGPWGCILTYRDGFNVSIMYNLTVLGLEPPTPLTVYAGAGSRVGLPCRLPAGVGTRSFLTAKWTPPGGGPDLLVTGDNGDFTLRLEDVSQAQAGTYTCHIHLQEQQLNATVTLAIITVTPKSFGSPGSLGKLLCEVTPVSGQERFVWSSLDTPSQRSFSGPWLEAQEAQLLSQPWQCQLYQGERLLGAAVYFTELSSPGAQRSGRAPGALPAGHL
Nature of the experiment: BLI (Octet QKe), 1:1 global fit. As for the experimental part: (§2) After stabilization for 10 minutes in a buffer (#18-1042, Fortebio Inc.), immobilized antigen or antibody was washed out for 5 minutes with the buffer. The antibody or antigen desired for binding was prepared at different concentrations (0.94-60 nM) in a 96-well plate (#655209, Greiner Bio-One, USA) and subjected to the association reaction for 10 minutes followed by dissociation reaction for 10 minutes or 30 minutes.
(BLI is a label-free optical method that tracks binding on a fibre tip over time.)

The target of experiment [8] is T5, recombinant monkey LAG-3 fused with mouse Fc (MrhLAG-3-mFc) (monkey).
T5 construct: also called monkey LAG-3 antigen
Nature of the experiment: BLI (Octet QKe), 1:1 global fit. As for the experimental part: as §2

Experiment [9] deals with T6, recombinant mouse LAG-3 fused with mouse Fc (mLAG-Fc) (mouse, UniProt Q61790 24-442, limits assumed).
T6 construct: also called mouse LAG-3 antigen; not shown: mouse Fc (mFc) at the carboxy terminal
T6 sequence (looked up): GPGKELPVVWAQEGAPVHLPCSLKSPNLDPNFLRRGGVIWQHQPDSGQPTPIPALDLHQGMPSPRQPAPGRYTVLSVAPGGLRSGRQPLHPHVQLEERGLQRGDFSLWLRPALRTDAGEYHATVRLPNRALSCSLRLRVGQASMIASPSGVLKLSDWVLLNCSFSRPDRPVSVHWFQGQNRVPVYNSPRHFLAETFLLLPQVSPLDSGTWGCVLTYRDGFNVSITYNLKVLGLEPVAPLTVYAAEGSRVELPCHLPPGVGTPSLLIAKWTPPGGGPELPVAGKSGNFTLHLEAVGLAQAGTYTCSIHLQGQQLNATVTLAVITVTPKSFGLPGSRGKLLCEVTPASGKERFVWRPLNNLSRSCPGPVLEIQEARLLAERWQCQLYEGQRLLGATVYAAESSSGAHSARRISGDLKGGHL
As to the kind of experiment: BLI (Octet QKe), 1:1 global fit. As to the method: as §2

In experiment [10] the target is T7, monkey (Rhesus monkey) LAG-3 overexpressed on HEK293E cells (Rhesus monkey, UniProt A0A5F8A874 23-533).
T7 construct: whole, on cells; also called HEK293E-MrhLAG3; MrhLAG3 (Rhesus Monkey)
T7 sequence: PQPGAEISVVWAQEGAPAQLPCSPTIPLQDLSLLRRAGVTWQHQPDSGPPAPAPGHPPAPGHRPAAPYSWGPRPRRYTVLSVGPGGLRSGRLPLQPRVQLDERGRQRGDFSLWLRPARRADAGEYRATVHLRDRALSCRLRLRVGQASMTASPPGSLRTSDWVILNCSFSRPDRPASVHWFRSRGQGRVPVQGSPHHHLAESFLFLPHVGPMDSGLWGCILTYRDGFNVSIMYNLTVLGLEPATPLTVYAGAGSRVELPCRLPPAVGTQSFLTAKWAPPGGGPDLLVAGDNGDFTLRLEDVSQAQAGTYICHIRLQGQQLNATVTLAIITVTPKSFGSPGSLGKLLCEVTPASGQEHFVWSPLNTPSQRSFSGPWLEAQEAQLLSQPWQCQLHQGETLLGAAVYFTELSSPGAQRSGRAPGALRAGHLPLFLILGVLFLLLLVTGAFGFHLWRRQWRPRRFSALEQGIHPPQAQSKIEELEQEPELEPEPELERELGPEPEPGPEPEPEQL
As to the kind of experiment: flow cytometry on HEK293E-MrhLAG3 cells, MFI, fitted curve. As for the experimental part: as §1

The target of experiment [11] is T4, recombinant human LAG-3 extracellular …. As to the kind of experiment: Octet biolayer interferometry, 1:1 global fit. As for the experimental part:
as §2

Experiment [12] deals with T5, recombinant monkey LAG-3 fused with …. Nature of the experiment: Octet biolayer interferometry, 1:1 global fit. As for the experimental part:
as §2

Experiment [13] concerns the target T2, mouse LAG-3 overexpressed on HEK293E …. As to the kind of experiment: flow cytometry, HEK293E cells overexpressing LAG-3, antibody 2 µg/ml. As for the experimental part:
as §1

Experiment [14] deals with T1, recombinant human LAG-3-his …. As to the kind of experiment: scFv phage ELISA on coated antigen, A490. This is another data set of the same source.

Positions count from the first letter of the chain named. Like-named read-outs stand apart in the source and are kept apart here.

B1: LAG3-1E09_AM_2E04 (antibody, V domains shown)
VH: EVQLVESGGDLVKPGGSLRLSCAASGFSFNDHYMNWVRQAPGKGLEWVAYIDTSATYIYYADSVKGRFTISRDNAKNSLYLQMNSLRAEDTAVYYCARDNWGSLDYWGQGTLVTVSS
VL: DIQMTQSPSSLSASVGDRVTIICRASQSISNYLNWYQQEPGKAPKLLIYDASNLESGVPSRFSGSGSGTDFTLTISSLQPEDFATYYCQQSYSTPYTFGQGTKVEIK
notes: Tested as full IgG
In the case of B1, the binding result in [1] is reported as “binds”; in experiment [2], “no binding (tested: 2 µg/ml)”; in [3], “binds”.

B2: LAG3-1E09_AM_1E09 (antibody, V domains shown)
VH: B1 VH with N30S, V37I
VL: DIQMTQSPATLSVSPGERATLSCRASQSVMNNLAWYQQKPGQAPRLLIYDASNRATGIPARFSGSGSGTDFTLTISRLEPEDFAVYYCEQYVRSPYTFGQGTKLDIK
notes: Tested as full IgG
B2: the binding result in experiment [2] is “no binding (tested: 2 µg/ml)”; in experiment [3], “binds”.

B3: LAG3-1E09_FR_1A06 (antibody, V domains shown)
VH: B1 VH with D10G, N30S
VL: DIQMTQSPGTLSMSPGEKATLSCRASQTVTTNLAWYQQKSGQAPRLLIYDASTRATGVPDRFSGSGSGTDFTLTISRLEPEDFAVYYCQQYGSSPYTFGQGTKLDIK
notes: Tested as full IgG
As for B3, the binding result was “no binding (tested: 2 µg/ml)” in experiment [2] and “binds” in experiment [3].

B4: LAG3-1E09_AM_2H01 (antibody, V domains shown)
VH: B1 VH with K13Q, S28T, N30S
VL: DIQMTQSPSSLSASVGDRVTITCQASQDISNYLNWYQQKPGKAPNLLIYDASTLETGVPSRFSGSGYGTDFTLTISGLQPDDFALYYCQQSYSTPYSFGPGTKVEIK
notes: Tested as full IgG
Regarding B4, the “EC50 (µg/ml), LAG3/MHC class II Blockade bioassay” value in [4] was determined as 0.0822 µg/mL. The EC50 stood at 1.74 mg/L in experiment [5], 0.0297 mg/L in experiment [6] and 0.156 mg/L in experiment [10]. Also, the dissociation constant Kd was determined as 0.136 nM in experiment [7], 0.629 nM in experiment [8] and 2.62 nM in [9]. The results for the off-rate (koff) in experiment [11] and in [12] were 1.61e-05 s⁻¹ and 3.23e-05 s⁻¹, respectively. Besides, the on-rate constant (kon) is 119000 M⁻¹ s⁻¹ in experiment [11] and 51400 M⁻¹ s⁻¹ in [12].

B5: LAG3-1E09_FR_1E10 (antibody, V domains shown)
VH: B1 VH with D10G, N30S
VL: DIQMTQSPSSLSASVGDRVIITCQASQDITNYLNWYQQKPGKAPKLLIYDASNLETGVPSRFTGSGSGTDFTFTISSLQPEDIATYHCQQSYSTPPYTFGQGTKLEIK
notes: Tested as full IgG
In the case of B5, the binding result in experiment [3], in experiment [13] and in experiment [14] was “binds” each time.

B6: LAG3-1E09_FR_1E09 (antibody, V domains shown)
VH: B1 VH with D10G, N30S, V37I
VL: DIQMTQSPSSLSASVGDRVTITCQASQDISNYLNWYQQKPGKAPNLLIYDASNLETGVPSRFSGSGSGTDFALTISSLQPEDFATYYCQQSDSTPITFGQGTRLDIK
notes: Tested as full IgG
Turning to B6, the binding result in experiment [2] is reported as “no binding (tested: 2 µg/ml)”; in [3] it was “binds”; in [14] it was “binds”.

The values are drawn from patent US20210238283A1 (Y BIOLOGICS, published 2021).
